A short description of the data set: soluble on expression in E. coli; label from the status in PepcDB or PDB records.
Consider “MWPPCFWWRTSPACAWGCGWPSRGRGTGFWRRPPRRRPWPLLREAELVVLDWMLPDEPGVRLLDRMRQGPYESLPVLMLTARAGVRDRVEGLSRGADDYLVKPFAVEELLARLEALLRRAGKRKVLRRGPLLLDLERMEARLEGNPLPLTRREFALLAYLAERPGRVCTREELLEAVWGPDYLGTPRTVDQHVLQLREKLGEDPKAPRFLETVRGVGYRFREEA”, for which the “soluble on expression in E. coli” value is reported as “soluble”.

With “MWPPNAENNHCNYSYHEHAELNPHDHYHHHHYPHSSVHHTECYQTLSCPSDLPVETSYYNSVPPSYQDLGQTDLSPQFWCAEVDCVHERCSTKEIPHEQSKIFEEISKECDHIMNSAGDCEKCQVEHENGAQEAIPINDLVDIVMQTVDNLKKEGSSNDETKLLSRKRQQNKVAAARYRDKQKAKWQDLLDQLEAEEDRNQRLKLQAGHLEKEVAEMRQAFLAKLAKK”, the “soluble on expression in E. coli” value was “not soluble”.

For the sequence “MWQCHLSAQDYRYYPVDGYSLLKRFPLHPLTGPRCPVQTVGQWLESIGLPQYENHLMANGFDNVQFMGSNVMEDQDLLEIGILNSGHRQRILQAIQLLPKMRPIGHDGYHPTSVAEWLDSIELGDYTKAFLINGYTSMDLLKKIWEVELINVLKINLIGHRKRILASLGDRLHDDPPQKPPRSITLRTGDWGEPSITLRPPNEATASTPVQYWQHHPEKLIFQSCDYKAFYLGSMLIKELRGTESTQDACAKMRANCQKSTEQMKKVPTIILSVSYKGVKFIDATNKNIIAEHEIRNISCAAQDPEDLSTFAYITKDLKSNHHYCHVFTAFDVNLAYEIILTLGQAFEVAYQLALQARKGGHSSTLPESFENKPSKPIPKPRVSIRKSVDLLHASHTGQEPSERHTEEALRKF”, the “soluble on expression in E. coli” value is “soluble”.

As to “MWRLRMSLGISEAFDLRPDYIISVIKDTRAKLVGFQFPEGLKRKGPELAKKVEKATGAEIIISGDPCFGACDLDRTLLDHVDILFHFGHAELEDIRLSNKVYFIETRSSVDVLHVIEKAVPELKGQKIGLITTVQHVHKLPDVCGVLERMGKTCVIGRGDSRIAYAGQVLGCNFSAARDEDCDEYLYIGSGDFHPLGVALSTKKRVLAADPFSGEVREVDPSRILRQRSAVIAKSLDAQVFGIIVSSKNGQKRMELASSLKELAKKHGKESHLILIDLVTPDQLLQFKVDAFVNTACPRLAIDEVGRFPAPMLTPQEFEIVLGEREWEKLVLDEITEEPVLEHHHHHH”, the “soluble on expression in E. coli” value is “not soluble”.

With “MWRNSEERENRTSGRSQGSYQEIIGRTWIFRGAHRGRVNKKNIVWHELIGLKVRVVNSTHPGYVGIEGYVIDETRNMLVIAGENKVWKVPKDVCIFEFETWDGTKIKISGEKLVGRPEMRLKKRWRK”, the “soluble on expression in E. coli” value is “soluble”.

In the case of “MYDAIVVGGGFSGLKAARDLTNAGKKVLLLEGGERLGGRAYSRESRNVPGLRVEIGGAYLHRKHHPRLAAELDRYGIPTAAASEFTSFRHRLGPTAVDQAFPIPGSEAVAVEAATYTLLRDAHRIDLEKGLENQDLEDLDIPLNEYVDKLDLPPVSRQFLLAWAWNMLGQPADQASALWMLQLVAAHHYSILGVVLSLDEVFSNGSADLVDAMSQEIPEIRLQTVVTGIDQSGDVVNVTVKDGHAFQAHSVIVATPMNTWRRIVFTPALPERRRSVIEEGHGGQGLKILIHVRGAEAGIECVGDGIFPTLYDYCEVSESERLLVAFTDSGSFDPTDIGAVKDAVLYYLPEVEVLGIDYHDWIADPLFEGPWVAPRVGQFSRVHKELGEPAGRIHFVGSDVSLEFPGYIEGALETAECAVNAILHSHHHHHH”, the “soluble on expression in E. coli” value is listed as “soluble”.

Regarding “MYDAYTPCEVALRLPVEVTCLAFQESNQTLLAGGRAGHLYAYTISANRRGFELTNICKSFHKKAVMELKVCQREDLLLCVSDGQLMAHKLSDPEYKVETLIHKVKPVQTFARFSPKTSGDLYVIVSSRKKLYLFKWGEKDGHKEFIEVALDYNPVFLDTPTSIRCVGEMVFFSVRNEYFSMTMQKDKTTTSPSEGSTPEGWNGFVTRLLNFNCQPGIVPMIDRRRVAFVRNEIVVTTDIWGQRPANVLSDEYKFSEVPMQIVYDSPYLVGMLSKGRVEVRSIFDGQLVQTMSLPKAMTLCSGARGQVFVAALSDIWILDTSQNLRKNVSHLIQERHFELAIQLAENSNLFAEEQKLEIKKKAALNLFNQKKFDESFALFGEIKTDISEVLSIIRMFPELLPDGFQSMTGVVSDMPANDRMRALLALGSYLSEIRTEHAKHIELYNRLYSSGAAKKTDEDEKAKLLLTLRVVDTTLLKCYIKTKPMLVDSLIRLQSNACTFEDAKKILESEGRLRSLFILYETRKKHEMALDLFIDQSSRPDADPFFDDAIQQIVEYLQSLGNSNLPLILKYAKWVLAKNLEAGVQIFTSDETEMARNLNRKAVVEFLKSECPDALIPYLEHVIFKWEEPSSYFHETLLEFYVARVNTLFKDYVHAFPDDENITRAGDEDGELGLYRKRLLKFLEVSHSYSPQTVLLQLAPHAFYEERALILGRLKQHEQALAIYVNTLKNVPAAEEYCRLYYNAHDETNSQVYLMLFRTLVHPNQQQLHSIPYHADSTPFGSYRDDVSEASTLVNSTSSYQPDVNTAIKILAKHADKIDTVGALNMLPATTPLRVVFSAINAVIQTTGRQASTRKMEKSVSQCAMSKKLERKNKAQSTKIIVNFSSECVVCEKKIAVSAFVRYPDGRLAHLYCHNDSQGGNRN”, the “soluble on expression in E. coli” value is on record as “not soluble”.

For the sequence “MYDVAIIGAGVIGCSIFRELTKYDLRVVVLEKEKDVSMGTSKANSAIVHAGYDPEEGTLMAKYNVKGNEMFEELCKELSVPFKRNGSLVLAFDKEDMFKVKHLYENGSKLGVKGLKILNRDEVLKMEPNLNDKIEGALYAPTGGIVGPFEYTIALAENGVTNGGKIKLKKEVVSIKKRDVFKIGTEDGETIEAKFVINAAGVYADKIHNLVCKESFKISPRSGEYFVMDKSQGNVVKHTIFQCPSKLGKGVLITPTVHGNLLVGPDARDVEDKEDVGTVFEGLDYVKEASMRSTKEVNFRESIRNFAGLRANPDTGDFIVEENDEVKGFIDVAGMKSPGLSSAPAIAVDVVNILSSAGCSLKK”, the “soluble on expression in E. coli” value is “not soluble”.

Turning to “MYEYLLLTRKNALFSLAINEPSPTFALTIIAIFSSTNVRSSVVRLGCFRVEICCTCHTQYLKLEIMVIISYLKYVNLPCSFIFISNSFALVFKISAEV”, the “soluble on expression in E. coli” value is on record as “soluble”.

With “MYGTEQIISGTIIAGPEILPIEGYICVKNGIITEIGEERTNSKNIIAPCFVNAHTHLGDSVCKDPVLGKTSGFRVQRDLDSLVKPPDGLKHRILRETPYKTLVGHIKRSLLDMIDTGTCAFADFREGGFLGVAALNKALEGLELRSLIFGRPAEPDLPLQVVLSEVRRILLRSDGLGMSGANDLDMNLLQEITACTRERKKLFAIHAGEKNRSDIEKALSLEPDLLIHLTHAGKKDLDEIAQAKIPVVVCPRSNFVTGAGMAPIAEMLEAGIRVAAGTDNVMLNSVNMFAEMEFMSKIFSIDDRQVFKICTLNGSFVMGPDSMCSIEKGNKANLMILNGDSNNLAGIQDPVGGITKRARPDDILAVLHS”, the “soluble on expression in E. coli” value is reported as “not soluble”.

As for “MYKNILLGVDTQLKNEKALKEVSKLAGEGTVVTVLNAISEQDAQASIKAGVHLNKLTEERSKRLEKTRKALEDYGIDYDQIIVRGNAKEELLKHANSGKYEIVVLSNRKAEDKKKFVLGSVSHKVAKRATIPVLIVK”, the “soluble on expression in E. coli” value was “not soluble”.

With “MYLPIFCIFLSVVDSLRILQIVPGFTNSHVLFNYRLAETLRFLGHDVKMWTQMEMAMLDTGNNKLPEGVSEYRIPIHFTDTLKTEGLKVFQSMMFESGDAHDLWWTGQEFKDMRVEACEQMLRHDESVYEDFRKDGFDVAIAHFHDLCPLAIAKKMNVKRVIWITHGTSIYEFSAVQLGLRTIPSTIPHPLSSAGFSQLFLDRVQNTLWHLSLLDFVNLPQNLLVDENLFYREFVGADQDDLWDLAKTTVPSLLINGDRMLDFPRPLPIHIAFSGELGVSKGKKLVMEKWLEDIIEKPSDGLIVFSLGTVSNTTNMPAQMINSFLGAFGKLKTYTILWRMEKSVAGAEKYENLHLVKWLPQKDIMRHPKMKLMIAHGGYNSFLEAAQAGIPAVLMPLFADQKINAKRAQRYGMATVLDKLDLTINNVYGAIKEALKPEYSTNAKKLSAMLSDQVARKPYSALRYSLKLATSPKPSLFTLKSQHLSFLEFHNLDIFSIVLLTAFIVCF”, the “soluble on expression in E. coli” value is “not soluble”.

“MYLSRITLHTSELSPAQLLHLVERGEYVMHQWLWDLFPGSKERQFLYRREELQGAFRFFVLSQEQPAASAIFDVQTRPFAPTLSAGQTLRFNLRANPTVCKNGKRHDLLMEAKRQRKTQGDSQDIWSYQQQAALTWLARQGEQNGFTLREASVDAYRQQQIRRGKDRQMIQFSSVDYTGVLVINEPALFLQRLAQGFGKSRAFGCGMMMIKPGDDA”: the “soluble on expression in E. coli” value is listed as “not soluble”.

(Values after the DeepSol protein solubility set.)
